Data taken from paper PMC11594918, “Kinetic Features of Degradation of R-Loops by RNase H1 from Escherichia coli”.

Experiments:
[1] = target: T1, RNase H1 D10N (RH1 D10N) (Escherichia coli, UniProt P0A7Y4 1-155, D10N); assay: MST; 10 mM Mg2+; saturation not reached, low limit estimate; MST: 40 mM Tris-HCl pH 7.9, 40 mM KCl, 10 mM MgCl2, 25 C; R-loop 0.5 uM, RH1 D10N 0.05-30 uM (RNAP MST conditions not stated separately); conditions: protein: recombinant, tags: N-terminal 6xHis, label: 5'-FAM on RNA, three strands 1:1:1, bubble
T1 sequence: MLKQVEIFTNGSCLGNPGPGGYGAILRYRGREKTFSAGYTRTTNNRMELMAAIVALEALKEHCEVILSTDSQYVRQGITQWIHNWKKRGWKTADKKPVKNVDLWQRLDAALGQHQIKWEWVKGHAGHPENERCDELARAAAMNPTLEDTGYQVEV

[2] = target: T1, RNase H1 D10N (RH1 D10N); assay: MST; 10 mM Mg2+; MST: 40 mM Tris-HCl pH 7.9, 40 mM KCl, 10 mM MgCl2, 25 C; R-loop 0.5 uM, RH1 D10N 0.05-30 uM (RNAP MST conditions not stated separately); conditions: protein: recombinant, tags: N-terminal 6xHis, label: 5'-FAM on RNA, bubble
[3] = target: RNA polymerase (RNAP) (Escherichia coli, UniProt P0A7Z4;P0A8V2;P0A8T7;P0A800 1-329;1-1342;1-1407;2-91); assay: MST; MST: 40 mM Tris-HCl pH 7.9, 40 mM KCl, 10 mM MgCl2, 25 C; R-loop 0.5 uM, RH1 D10N 0.05-30 uM (RNAP MST conditions not stated separately); conditions: protein: recombinant; tags: N-terminal His (pVS10 plasmid); chain copies: 2;1;1;1; label: 5'-FAM on RNA; three strands 1:1:1 (nontemplate DNA, template DNA, RNA); bubble; 11 bp hybrid
[4] = three strands 1:1:1, 10-11 nt hybrid

Chain of RNA polymerase (RNAP) (P0A7Z4 whole entry, chain 1 of 4): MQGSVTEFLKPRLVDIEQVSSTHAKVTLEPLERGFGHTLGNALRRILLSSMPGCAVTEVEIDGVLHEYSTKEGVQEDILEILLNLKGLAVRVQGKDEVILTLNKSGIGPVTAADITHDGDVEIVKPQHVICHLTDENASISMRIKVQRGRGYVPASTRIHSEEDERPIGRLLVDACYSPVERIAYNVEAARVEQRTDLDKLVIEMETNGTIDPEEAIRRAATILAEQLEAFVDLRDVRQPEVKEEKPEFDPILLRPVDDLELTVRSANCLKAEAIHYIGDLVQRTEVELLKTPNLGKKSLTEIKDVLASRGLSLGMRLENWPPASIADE
Chain of RNA polymerase (RNAP) (P0A8V2 whole entry, chain 2 of 4): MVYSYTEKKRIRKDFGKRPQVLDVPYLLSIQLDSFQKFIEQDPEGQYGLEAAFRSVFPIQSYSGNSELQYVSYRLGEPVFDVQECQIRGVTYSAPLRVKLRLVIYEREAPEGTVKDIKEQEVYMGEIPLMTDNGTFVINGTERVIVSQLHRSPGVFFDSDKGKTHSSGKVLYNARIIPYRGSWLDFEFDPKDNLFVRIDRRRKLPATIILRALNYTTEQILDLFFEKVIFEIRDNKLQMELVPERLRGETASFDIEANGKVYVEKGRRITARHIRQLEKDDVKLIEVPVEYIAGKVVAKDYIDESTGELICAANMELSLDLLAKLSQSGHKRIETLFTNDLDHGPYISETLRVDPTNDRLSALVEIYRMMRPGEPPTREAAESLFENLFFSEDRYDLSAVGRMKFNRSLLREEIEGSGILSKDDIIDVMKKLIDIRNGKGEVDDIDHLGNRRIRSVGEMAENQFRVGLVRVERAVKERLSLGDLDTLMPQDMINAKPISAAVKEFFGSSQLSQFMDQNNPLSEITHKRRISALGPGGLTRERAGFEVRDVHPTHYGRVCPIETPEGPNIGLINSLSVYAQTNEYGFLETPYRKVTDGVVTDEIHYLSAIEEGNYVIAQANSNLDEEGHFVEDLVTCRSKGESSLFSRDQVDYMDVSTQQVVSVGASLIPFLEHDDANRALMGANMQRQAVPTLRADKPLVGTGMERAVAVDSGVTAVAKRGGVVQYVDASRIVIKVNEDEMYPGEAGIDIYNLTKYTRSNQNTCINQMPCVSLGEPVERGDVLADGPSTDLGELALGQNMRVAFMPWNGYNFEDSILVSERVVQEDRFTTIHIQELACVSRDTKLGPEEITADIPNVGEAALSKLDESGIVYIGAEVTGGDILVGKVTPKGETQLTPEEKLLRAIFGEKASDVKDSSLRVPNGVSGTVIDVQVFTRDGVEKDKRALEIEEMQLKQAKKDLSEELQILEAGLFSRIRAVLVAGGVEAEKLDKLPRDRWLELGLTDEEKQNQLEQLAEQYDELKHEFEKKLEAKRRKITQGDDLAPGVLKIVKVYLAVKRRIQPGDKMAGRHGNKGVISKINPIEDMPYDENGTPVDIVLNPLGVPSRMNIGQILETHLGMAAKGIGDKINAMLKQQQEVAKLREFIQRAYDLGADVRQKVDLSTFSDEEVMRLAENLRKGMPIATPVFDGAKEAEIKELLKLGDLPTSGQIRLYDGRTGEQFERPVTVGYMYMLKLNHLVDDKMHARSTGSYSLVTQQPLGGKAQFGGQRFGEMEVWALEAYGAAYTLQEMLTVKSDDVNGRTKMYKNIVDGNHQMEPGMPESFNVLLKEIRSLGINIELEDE
Chain of RNA polymerase (RNAP) (P0A8T7 whole entry, chain 3 of 4): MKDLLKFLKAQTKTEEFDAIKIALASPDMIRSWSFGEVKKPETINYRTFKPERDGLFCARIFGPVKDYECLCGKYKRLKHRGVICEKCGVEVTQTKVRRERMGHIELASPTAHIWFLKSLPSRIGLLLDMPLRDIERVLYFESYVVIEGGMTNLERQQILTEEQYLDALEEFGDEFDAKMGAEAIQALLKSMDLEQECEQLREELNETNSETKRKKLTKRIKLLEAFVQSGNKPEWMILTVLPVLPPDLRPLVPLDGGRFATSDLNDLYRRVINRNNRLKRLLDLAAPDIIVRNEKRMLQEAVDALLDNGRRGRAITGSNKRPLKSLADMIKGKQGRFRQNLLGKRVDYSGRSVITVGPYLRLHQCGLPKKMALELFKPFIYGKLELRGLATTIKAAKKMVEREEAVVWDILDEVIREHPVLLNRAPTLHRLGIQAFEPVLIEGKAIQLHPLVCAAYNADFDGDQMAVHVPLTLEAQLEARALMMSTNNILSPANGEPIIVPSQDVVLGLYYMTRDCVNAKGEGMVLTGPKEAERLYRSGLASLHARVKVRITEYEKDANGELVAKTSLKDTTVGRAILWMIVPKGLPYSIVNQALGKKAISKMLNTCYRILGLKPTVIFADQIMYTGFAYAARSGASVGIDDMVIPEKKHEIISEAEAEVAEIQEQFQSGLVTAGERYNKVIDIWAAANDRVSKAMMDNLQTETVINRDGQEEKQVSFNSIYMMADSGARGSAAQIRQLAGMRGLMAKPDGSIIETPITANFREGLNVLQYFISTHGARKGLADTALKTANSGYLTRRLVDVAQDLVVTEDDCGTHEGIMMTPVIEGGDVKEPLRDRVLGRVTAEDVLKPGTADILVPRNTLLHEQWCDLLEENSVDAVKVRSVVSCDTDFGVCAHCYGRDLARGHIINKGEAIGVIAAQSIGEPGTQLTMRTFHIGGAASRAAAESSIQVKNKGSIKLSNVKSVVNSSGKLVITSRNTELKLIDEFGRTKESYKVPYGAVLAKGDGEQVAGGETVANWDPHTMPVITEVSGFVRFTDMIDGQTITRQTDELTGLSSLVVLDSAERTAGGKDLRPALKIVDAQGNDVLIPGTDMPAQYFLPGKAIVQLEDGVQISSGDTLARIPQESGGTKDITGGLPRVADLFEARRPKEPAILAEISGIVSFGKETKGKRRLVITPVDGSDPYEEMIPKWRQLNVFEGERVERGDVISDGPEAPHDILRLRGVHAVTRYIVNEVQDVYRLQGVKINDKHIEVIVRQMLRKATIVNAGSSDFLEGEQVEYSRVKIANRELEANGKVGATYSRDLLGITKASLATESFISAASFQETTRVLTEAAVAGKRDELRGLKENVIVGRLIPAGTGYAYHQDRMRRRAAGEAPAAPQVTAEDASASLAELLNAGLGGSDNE
Chain of RNA polymerase (RNAP) (P0A800 2-91, chain 4 of 4): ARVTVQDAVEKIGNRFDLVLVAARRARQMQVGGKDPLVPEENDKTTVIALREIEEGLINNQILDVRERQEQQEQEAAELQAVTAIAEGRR

B1: R-loop 6 (mixed)
DNA 1: ACTTGTAGCGATCTAAGGTCTTTTTTTTTTTTTTGGCTCATTGCAGTAGAGTAGC
DNA 2: GCTACTCTACTGCAATGAGCTGCTCTCTGGACTCGAACCTTAGATCGCTACAAGT
RNA: CUCACAUCGAGUCCAGAGAGCA
- Kd ([1]; 16 nt hybrid): ~9.7 µM

B2: R-loop 1 (mixed)
DNA 1: ACTTGTAGCGATCTAAGGTCTTTTTTTTTGGCTCATTGCAGTAGAGTAGC
DNA 2: GCTACTCTACTGCAATGAGCTGCTCTCTGGAACCTTAGATCGCTACAAGT
RNA: CUCACAUCCAGAGAGCA
- Kd ([2]; three strands 1:1:1 (nontemplate DNA, template DNA, RNA), 11 bp hybrid): 1.2 ± 0.4 µM
- Kd [3]: 0.3 ± 0.1 µM

B3: R-loop 2 (mixed)
DNA 1: ACTTGTAGCGATCTAAGGTCTTTTTTTTTAGCTCATTGCAGTAGAGTAGC
DNA 2: GCTACTCTACTGCAATGAGCTGCTCTCTGGAACCTTAGATCGCTACAAGT
RNA: CUCACAUCCAGAGAGCA
- Kd [2, 4]: 1.1 ± 0.4 µM

B4: R-loop 3 (mixed)
DNA 1: ACTTGTAGCGATCTAAGGTCTTTTTTTTTGCCTCATTGCAGTAGAGTAGC
DNA 2: GCTACTCTACTGCAATGAGCTGCTCTCTGGAACCTTAGATCGCTACAAGT
RNA: CUCACAUCCAGAGAGCA
- Kd [2, 4]: 1.5 ± 0.4 µM

B5: R-loop 8 (mixed)
DNA 1: ACTTGTAGCGATCTAAGGTCTTTTTTTTTTTTTTTTTTTTTTTTTTTTTGGCTCATTGCAGTAGAGTAGC
DNA 2: GCTACTCTACTGCAATGAGTGCTTGATGGAGGGATGTGTAGTGGAATAGATACCTTAGATCGCTACAAGT
RNA: CUCACAUCUAUUCCACUACACAUCCCUCCAUCAAGCA
- Kd ([1]; extended hybrid): ~9.3 µM

B6: R-loop 9 (mixed)
DNA 1: ACTTGTAGCGATCTAAGGTCTTTTGGGTGGGTGGGTGGGTTTTTTTTTTGGCTCATTGCAGTAGAGTAGC
DNA 2: GCTACTCTACTGCAATGAGTGCTTGATGGAGGGATGTGTAGTGGAATAGATACCTTAGATCGCTACAAGT
RNA: CUCACAUCUAUUCCACUACACAUCCCUCCAUCAAGCA
- Kd ([1]; extended hybrid, G4 in nontemplate DNA (annealed in 140 mM KCl)): ~5.1 µM

B7: R-loop 7 (mixed)
DNA 1: ACTTGTAGCGATCTAAGGTCTTTTTTTTTTTTTTTTTTTGGCTCATTGCAGTAGAGTAGC
DNA 2: GCTACTCTACTGCAATGAGCTGGGATGTGTAGTGGAATAGAACCTTAGATCGCTACAAGT
RNA: CUCACAUCUAUUCCACUACACAUCCCA
- Kd ([1]; extended hybrid): ~6.7 µM
